Data taken from patent publication US20150203577A1 (Chugai, published 2015).

Experiments:
[1] = biological target: T1, mouse FcγRII (mouse, UniProt P08101 30-210); test: SPR (Biacore), antibody captured on Protein L
T1 construct: Extracellular domain with C-terminal His tag, made in FreeStyle 293 cells; also called mFcγRII; mFcgRII
T1 sequence: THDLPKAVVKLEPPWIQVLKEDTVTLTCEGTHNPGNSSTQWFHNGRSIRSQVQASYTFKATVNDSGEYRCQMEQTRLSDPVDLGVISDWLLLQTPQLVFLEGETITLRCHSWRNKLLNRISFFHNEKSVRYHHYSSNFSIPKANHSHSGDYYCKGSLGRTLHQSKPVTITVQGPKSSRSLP

[2] = biological target: T2, mouse FcγRIII (mouse, UniProt P08508 31-215); test: SPR (Biacore), antibody captured on Protein L
T2 construct: Extracellular domain with C-terminal His tag, made in FreeStyle 293 cells; also called mFcγRIII; mFcgRIII
T2 chain: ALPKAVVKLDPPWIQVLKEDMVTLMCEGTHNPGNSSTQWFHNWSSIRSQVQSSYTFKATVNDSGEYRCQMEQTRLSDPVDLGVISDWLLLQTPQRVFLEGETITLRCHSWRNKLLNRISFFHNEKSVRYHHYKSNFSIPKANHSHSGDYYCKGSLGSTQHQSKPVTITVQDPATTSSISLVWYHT

[3] = biological target: T1, mouse FcγRII; test: SPR (Biacore), KD of H237-mIgG1/MRAL-k0 (same run) / KD of variant
Procedure: (§1) Each altered antibody was analyzed for its interaction with each Fcγ receptor prepared above using Biacore T100 (GE Healthcare Japan Corp.), Biacore T200 (GE Healthcare Japan Corp.), Biacore A100, or Biacore 4000. The running buffer used was HBS-EP+ (GE Healthcare Japan Corp.). The assay temperature was set to 25° C. The sensor chips used were chips prepared by immobilizing Protein L (ACTIGEN or BioVision) onto Series S Sensor Chip CM5 (GE Healthcare Japan Corp.) or Series S Sensor Chip CM4 (GE Healthcare Japan Corp.) by the amine coupling method.
(§2) In order to calculate the KD value of each altered antibody for FcγR, kinetic analysis was conducted according to the following method: first, the antibody of interest was captured onto any of these chips and allowed to interact with mFcγR diluted with a running buffer. For the obtained sensorgram, the assay results were globally fit into the 1:1 Langmuir binding model using Biacore Evaluation Software to calculate an association rate constant ka (L/mol/s) and a dissociation rate constant kd (1/s). From these values, the dissociation constant KD (mol/L) was calculated.

[4] = biological target: T2, mouse FcγRIII; test: as above
Procedure: as §1, §2

Binder | Kd [1] | Kd [2] | relative mFcγRII-binding activity (mIgG1 = 1) [3] | relative mFcγRIII-binding activity (mIgG1 = 1) [4]
H237-MB626/MRAL-k0 (antibody, mouse IgG1, kappa, copies: 2 + 2) heavy: QVQLQESGPGLVKPSETLSLTCAVSGHSISHDHAWSWVRQPPGEGLEWIGFISYSGITNYNPSLQGRVTISRDNSKNTLYLQMNSLRAEDTAVYYCARSLARTTAMDYWGEGTLVTVSSAKTTPPSVYPLAPGSAAQTNSMVTLGCLVKGYFPEPVTVTWNSGSLSSGVHTFPAVLQSDLYTLSSSVTVPSSTWPSETVTCNVAHPASSTKVDKKIVPRDCGCKPCICETYEVELVFIFPPKPKDVLTITLTPKVTCVVVDISKDDPEVQFSWFVDDVEVHTAQTQPREEQFNSTFRSVSELPIMHQDWLNGKEFKCRVNSAAFPAPIEKTISKTKGRPKAPQVYTIPPPKEQMAKDKVSLTCMITDFFPEDITVEWQWNGQPAENYKNTQPIMDTDGSYFVYSKLNVQKSNWEAGNTFTCSVLHEGLHNHHTEKSLSHSPGK light: not shown | 261 nM | 2370 nM | 0.89 fold | 0.14 fold
H237-MB640/MRAL-k0 (antibody, mouse IgG1, kappa, copies: 2 + 2) heavy: QVQLQESGPGLVKPSETLSLTCAVSGHSISHDHAWSWVRQPPGEGLEWIGFISYSGITNYNPSLQGRVTISRDNSKNTLYLQMNSLRAEDTAVYYCARSLARTTAMDYWGEGTLVTVSSAKTTPPSVYPLAPGSAAQTNSMVTLGCLVKGYFPEPVTVTWNSGSLSSGVHTFPAVLQSDLYTLSSSVTVPSSTWPSETVTCNVAHPASSTKVDKKIVPRDCGCKPCICQPNEVENVFIFPPKPKDVLTITLTPKVTCVVVDISKDDPEVQFSWFVDDVEVHTAQTQPREEQFNSTFRSVSELPIMHQDWLNGKEFKCRVNSAAFPAPIEKTISKTKGRPKAPQVYTIPPPKEQMAKDKVSLTCMITDFFPEDITVEWQWNGQPAENYKNTQPIMDTDGSYFVYSKLNVQKSNWEAGNTFTCSVLHEGLHNHHTEKSLSHSPGK light: not shown | 197 nM | 1550 nM | 1.17 fold | 0.21 fold
H237-MB658/MRAL-k0 (antibody, mouse IgG1, kappa, copies: 2 + 2) heavy: QVQLQESGPGLVKPSETLSLTCAVSGHSISHDHAWSWVRQPPGEGLEWIGFISYSGITNYNPSLQGRVTISRDNSKNTLYLQMNSLRAEDTAVYYCARSLARTTAMDYWGEGTLVTVSSAKTTPPSVYPLAPGSAAQTNSMVTLGCLVKGYFPEPVTVTWNSGSLSSGVHTFPAVLQSDLYTLSSSVTVPSSTWPSETVTCNVAHPASSTKVDKKIVPRDCGCKPCICQPNEVEFVFIFPPKPKDVLTITLTPKVTCVVVDISKDDPEVQFSWFVDDVEVHTAQTQPREEQFNSTFRSVSELPIMHQDWLNGKEFKCRVNSAAFPAPIEKTISKTKGRPKAPQVYTIPPPKEQMAKDKVSLTCMITDFFPEDITVEWQWNGQPAENYKNTQPIMDTDGSYFVYSKLNVQKSNWEAGNTFTCSVLHEGLHNHHTEKSLSHSPGK light: not shown | 415 nM | 4880 nM | 0.56 fold | 0.07 fold
H237-MB643/MRAL-k0 (antibody, mouse IgG1, kappa, copies: 2 + 2) heavy: QVQLQESGPGLVKPSETLSLTCAVSGHSISHDHAWSWVRQPPGEGLEWIGFISYSGITNYNPSLQGRVTISRDNSKNTLYLQMNSLRAEDTAVYYCARSLARTTAMDYWGEGTLVTVSSAKTTPPSVYPLAPGSAAQTNSMVTLGCLVKGYFPEPVTVTWNSGSLSSGVHTFPAVLQSDLYTLSSSVTVPSSTWPSETVTCNVAHPASSTKVDKKIVPRDCGCKPCICENYEVEYVFIFPPKPKDVLTITLTPKVTCVVVDISKDDPEVQFSWFVDDVEVHTAQTQPREEQFNSTFRSVSELPIMHQDWLNGKEFKCRVNSAAFPAPIEKTISKTKGRPKAPQVYTIPPPKEQMAKDKVSLTCMITDFFPEDITVEWQWNGQPAENYKNTQPIMDTDGSYFVYSKLNVQKSNWEAGNTFTCSVLHEGLHNHHTEKSLSHSPGK light: not shown | 126 nM | 2000 nM | 1.83 fold | 0.16 fold
H237-MB685/MRAL-k0 (antibody, mouse IgG1, kappa, copies: 2 + 2) heavy: QVQLQESGPGLVKPSETLSLTCAVSGHSISHDHAWSWVRQPPGEGLEWIGFISYSGITNYNPSLQGRVTISRDNSKNTLYLQMNSLRAEDTAVYYCARSLARTTAMDYWGEGTLVTVSSAKTTPPSVYPLAPGSAAQTNSMVTLGCLVKGYFPEPVTVTWNSGSLSSGVHTFPAVLQSDLYTLSSSVTVPSSTWPSETVTCNVAHPASSTKVDKKIVPRDCGCKPCICTPAEVELVFIFPPKPKDVLTITLTPKVTCVVVDISKDDPEVQFSWFVDDVEVHTAQTQPREEQFNSTFRSVSELPIMHQDWLNGKEFKCRVNSAAFPAPIEKTISKTKGRPKAPQVYTIPPPKEQMAKDKVSLTCMITDFFPEDITVEWQWNGQPAENYKNTQPIMDTDGSYFVYSKLNVQKSNWEAGNTFTCSVLHEGLHNHHTEKSLSHSPGK light: not shown | 537 nM | 5490 nM | 0.61 fold | 0.09 fold
H237-MB642/MRAL-k0 (antibody, mouse IgG1, kappa, copies: 2 + 2) heavy: QVQLQESGPGLVKPSETLSLTCAVSGHSISHDHAWSWVRQPPGEGLEWIGFISYSGITNYNPSLQGRVTISRDNSKNTLYLQMNSLRAEDTAVYYCARSLARTTAMDYWGEGTLVTVSSAKTTPPSVYPLAPGSAAQTNSMVTLGCLVKGYFPEPVTVTWNSGSLSSGVHTFPAVLQSDLYTLSSSVTVPSSTWPSETVTCNVAHPASSTKVDKKIVPRDCGCKPCICEDYEVEYVFIFPPKPKDVLTITLTPKVTCVVVDISKDDPEVQFSWFVDDVEVHTAQTQPREEQFNSTFRSVSELPIMHQDWLNGKEFKCRVNSAAFPAPIEKTISKTKGRPKAPQVYTIPPPKEQMAKDKVSLTCMITDFFPEDITVEWQWNGQPAENYKNTQPIMDTDGSYFVYSKLNVQKSNWEAGNTFTCSVLHEGLHNHHTEKSLSHSPGK light: not shown | 197 nM | 5110 nM | 1.65 fold | 0.1 fold
H237-MB641/MRAL-k0 (antibody, mouse IgG1, kappa, copies: 2 + 2) heavy: QVQLQESGPGLVKPSETLSLTCAVSGHSISHDHAWSWVRQPPGEGLEWIGFISYSGITNYNPSLQGRVTISRDNSKNTLYLQMNSLRAEDTAVYYCARSLARTTAMDYWGEGTLVTVSSAKTTPPSVYPLAPGSAAQTNSMVTLGCLVKGYFPEPVTVTWNSGSLSSGVHTFPAVLQSDLYTLSSSVTVPSSTWPSETVTCNVAHPASSTKVDKKIVPRDCGCKPCICEAYEVEYVFIFPPKPKDVLTITLTPKVTCVVVDISKDDPEVQFSWFVDDVEVHTAQTQPREEQFNSTFRSVSELPIMHQDWLNGKEFKCRVNSAAFPAPIEKTISKTKGRPKAPQVYTIPPPKEQMAKDKVSLTCMITDFFPEDITVEWQWNGQPAENYKNTQPIMDTDGSYFVYSKLNVQKSNWEAGNTFTCSVLHEGLHNHHTEKSLSHSPGK light: not shown | 143 nM | 2100 nM | 1.62 fold | 0.15 fold
H237-MB638/MRAL-k0 (antibody, 'T2301' read as T230I; copies: 2 + 2) heavy: QVQLQESGPGLVKPSETLSLTCAVSGHSISHDHAWSWVRQPPGEGLEWIGFISYSGITNYNPSLQGRVTISRDNSKNTLYLQMNSLRAEDTAVYYCARSLARTTAMDYWGEGTLVTVSSAKTTPPSVYPLAPGSAAQTNSMVTLGCLVKGYFPEPVTVTWNSGSLSSGVHTFPAVLQSDLYTLSSSVTVPSSTWPSETVTCNVAHPASSTKVDKKIVPRDCGCKPCICIPAEVENVFIFPPKPKDVLTITLTPKVTCVVVDISKDDPEVQFSWFVDDVEVHTAQTQPREEQFNSTFRSVSELPIMHQDWLNGKEFKCRVNSAAFPAPIEKTISKTKGRPKAPQVYTIPPPKEQMAKDKVSLTCMITDFFPEDITVEWQWNGQPAENYKNTQPIMDTDGSYFVYSKLNVQKSNWEAGNTFTCSVLHEGLHNHHTEKSLSHSPGK light: not shown | 280 nM | 3380 nM | 0.83 fold | 0.1 fold
H237-MB647/MRAL-k0 (antibody, 'T2301' read as T230I; copies: 2 + 2) heavy: QVQLQESGPGLVKPSETLSLTCAVSGHSISHDHAWSWVRQPPGEGLEWIGFISYSGITNYNPSLQGRVTISRDNSKNTLYLQMNSLRAEDTAVYYCARSLARTTAMDYWGEGTLVTVSSAKTTPPSVYPLAPGSAAQTNSMVTLGCLVKGYFPEPVTVTWNSGSLSSGVHTFPAVLQSDLYTLSSSVTVPSSTWPSETVTCNVAHPASSTKVDKKIVPRDCGCKPCICIPAEVEYVFIFPPKPKDVLTITLTPKVTCVVVDISKDDPEVQFSWFVDDVEVHTAQTQPREEQFNSTFRSVSELPIMHQDWLNGKEFKCRVNSAAFPAPIEKTISKTKGRPKAPQVYTIPPPKEQMAKDKVSLTCMITDFFPEDITVEWQWNGQPAENYKNTQPIMDTDGSYFVYSKLNVQKSNWEAGNTFTCSVLHEGLHNHHTEKSLSHSPGK light: not shown | 200 nM | 2800 nM | 1.16 fold | 0.12 fold
